Assay results: patent US20190062448A1, “ANTI-CD39 ANTIBODIES, COMPOSITIONS COMPRISING ANTI-CD39 ANTIBODIES AND METHODS OF USING ANTI-CD39 ANTIBODIES” (Tizona Therapeutics, priority 2017, published 2019)
Entries after “also recorded” stand apart in the source; their conditions may differ. Values belong to the molecule of their own block, whether it stands above or below them.

How the values were obtained:
[1] = molecular target: T1, human CD39 endogenously expressed on MEL-28 cells (Homo sapiens, UniProt P49961); experiment: EnzChek kinetic Pi detection assay on MEL-28 cells (initial velocity, Michaelis-Menten); format: cell-based; settings: ARL 200 micromolar, isotype control 7.7
T1 construct: MEL-28 cells (35,000 MEL-28 cells/well) endogenously expressing human CD39; endogenous in cells; host or cells: MEL-28
T1 sequence (P49961 1-510): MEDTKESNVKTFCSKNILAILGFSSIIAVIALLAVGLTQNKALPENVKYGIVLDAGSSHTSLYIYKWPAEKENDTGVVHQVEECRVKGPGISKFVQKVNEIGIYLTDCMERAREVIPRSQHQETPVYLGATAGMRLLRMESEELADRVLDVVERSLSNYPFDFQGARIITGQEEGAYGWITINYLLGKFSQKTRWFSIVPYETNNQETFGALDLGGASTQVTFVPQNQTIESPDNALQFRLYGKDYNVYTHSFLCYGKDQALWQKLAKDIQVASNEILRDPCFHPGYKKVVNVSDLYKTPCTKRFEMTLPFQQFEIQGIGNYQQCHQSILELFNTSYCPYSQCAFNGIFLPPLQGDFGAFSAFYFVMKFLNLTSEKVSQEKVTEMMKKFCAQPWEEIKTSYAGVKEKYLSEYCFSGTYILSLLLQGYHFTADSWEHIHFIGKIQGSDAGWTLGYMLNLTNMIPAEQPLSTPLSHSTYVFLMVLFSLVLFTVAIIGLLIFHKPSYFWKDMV
Procedure: Anti-CD39 antibodies (100 nanomolar), isotype control antibody (100 nanomolar), or ARL (200 micromolar) were incubated with MEL-28 cells endogenously expressing human CD39 for 2 hours. ATP was then added and the rate of ATP hydrolysis to Pi by CD39 was monitored using the EnzChek kinetic Pi detection assay. The initial enzyme velocity, ν0, was determined from the linear region of Pi vs. time curve over the first 15 minutes post-ATP addition. Each value is the mean of 3 replicates.
Anti-CD39 antibodies or isotype control antibody (100 nanomolar final concentration) were incubated with MEL-28 cells (35,000 MEL-28 cells/well) endogenously expressing human CD39 at 37° C. for 20 minutes in the presence of EnzChek reagents (PNP & MESG). Immediately following the addition of ATP (final concentrations ranging from 0-450 micromolar), the rate of ATP hydrolysis to free phosphate (Pi) by CD39 was monitored over time at Abs360 nm using SpectraMax i3x plate reader. The initial enzyme velocity, ν0, was determined from the linear region of Pi vs. time curve for each ATP concentration. The plot of ν0 vs. [ATP] was curve fit using non-linear regression of the Michaelis-Menten kinetic model.

[2] = molecular target: T2, CD39 expressed on MEL-28 cells (Homo sapiens, UniProt P49961); experiment: Cellular CD39 ATPase inhibition (Malachite Green), Example 15; format: cell-based; settings: 10-25 μg/ml antibody; 50 μM ATP; vs isotype control
T2 construct: endogenous in cells; host or cells: MEL-28
T2 sequence (P49961 1-510): T1 sequence (P49961 1-510)
Procedure: Indicated cells were incubated in assay buffer with 10-25 μg/ml antibody, 100 μM POM-1 or 100 μM ARL for 30 min at 37° C. 5% CO2. ATP was added to a final concentration of 50 μM and the incubation continued for 15 min. Supernatant was evaluated for free phosphate (Pi) using the Malachite Green Phosphate Detection kit. Palivizumab is used as an isotype control and POM-1 and ARL are non-specific small molecule inhibitors of CD39.
(§1) Also, an 18 hour incubation was used with the antibody or isotype control. Finally, an additional 30 second baseline dip in buffer between antigen capture and dipping into a second competitor antibody for 300 seconds was used.

hCD39-ECD [3] = molecular target: T3, hCD39-ECD (Homo sapiens, UniProt P49961); experiment: Epitope binning / competition for hCD39-ECD binding by Bio-Layer Interferometry
T3 sequence (P49961 38-478 limits assumed): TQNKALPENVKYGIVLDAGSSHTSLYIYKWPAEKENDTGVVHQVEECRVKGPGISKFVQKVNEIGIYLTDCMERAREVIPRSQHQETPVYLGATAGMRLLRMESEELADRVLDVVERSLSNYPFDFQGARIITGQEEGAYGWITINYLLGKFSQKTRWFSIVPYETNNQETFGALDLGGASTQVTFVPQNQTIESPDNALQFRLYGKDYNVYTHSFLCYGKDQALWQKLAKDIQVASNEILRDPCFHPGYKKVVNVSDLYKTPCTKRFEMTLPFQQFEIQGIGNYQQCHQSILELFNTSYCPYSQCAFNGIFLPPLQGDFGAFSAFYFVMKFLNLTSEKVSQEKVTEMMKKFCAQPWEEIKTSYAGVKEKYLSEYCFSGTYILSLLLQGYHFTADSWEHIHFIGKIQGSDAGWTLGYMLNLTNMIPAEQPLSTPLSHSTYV
Source text: A1 antibody was immobilized onto an Anti-Mouse IgG Fc Capture (AMC) biosensor (ForteBio). Association of hCD39-ECD was then monitored for 180 seconds via Bio-Layer Interferometry (BLI) using the Octet system (ForteBio), at which point the biosensor was dipped into competitor antibody and monitored for another 180 seconds.
The methods are the same as set forth above except that instead of A1, the representative antibody was immobilized using anti-human IgG Fc Capture (AHC) biosensor.
as §1

hCD39-ECD [4] = molecular target: T3, hCD39-ECD; experiment: rhCD39-ECD ATPase inhibition (Malachite Green free phosphate); format: biochemical; set-up: purchased R&D Systems; settings: 50 μg/ml antibody; 10 μM ATP; vs isotype or buffer controls
Procedure: 0.04-3.3 nM rhCD39-ECD (R&D Systems) was incubated with buffer, 50 μg/ml antibody or 100 μM POM-1 (Alpha Aesar) for 1 hr at 37° C. in assay buffer (25 mM Tris pH 7.5, 5 mM CaCl2) at which point ATP (Sigma) was spiked in to a final concentration of 10 μM, and the reaction further incubated for 30 min 37° C. Production of free phosphate (Pi) was subsequently measured using Malachite Green Phosphate Detection kit (R&D Systems).
as §1

ATP hydrolysis rate (initial velocity) [1]: 1.2 micromolar Pi per minute
Molecule: CCN(CC)c1ncnc2c1ncn2[C@@H]1O[C@H](COP(=O)(O)OP(=O)(O)C(Br)(Br)P(=O)(O)O)[C@@H](O)[C@H]1O [ARL]

competition / binning with other anti-CD39 antibody bin groups for ECD binding (hCD39-ECD [3]): do not compete
B1: 27571: anti-human CD39 antibody inhibiting soluble ECD and cellular CD39 (antibody, V domains shown)
VH: QVQLVQSGAEVKKPGSSVKASCKASGGTFSSYAISWVRQAPGQGLEWMGSIIPIFGTANYAQKFRGRVTITADESTSTTYMELSSLRSEDTAVYYCARESGGYRDHRLDVWGQGTMVTVSS
VL: EIVMTQSPATLSVSPGERATLSCRASQSVGSNLAWYQQKPGQAPRLLIYGASTRATGIPARFSGSGSGTEFTLTISSLQSEDFAVYYCQQYLIWPLTFGGGTKVEIK
modifications: Synthetic VH, 27571; Synthetic VL, 27571
inhibition of ATPase activity of CD39 expressed on MEL-28 cells [2]: inhibit the hydrolysis of CD39 expressed on MEL-28 cells
competition with antibody A1 for binding to hCD39 ECD (hCD39-ECD [3]; A1 immobilized, ECD captured, then competitor antibody): does not block binding; also recorded: do not compete
inhibition of ATPase activity of soluble hCD39 ECD (μM Pi) (hCD39-ECD [4]): able to inhibit the hydrolysis of ATP by hCD39 ECD
